Assay results from patent US20210130436A1 (published 2021).

Columns and labels:
[1] = target: T1, human CTLA4 on CHO cells (human, UniProt P16410 36-223); assay: flow cytometry, CHO cells stably expressing CTLA4
T1 construct: whole, on cells; CHO cells stably expressing CTLA4; also called huCTLA4

[2] = target: T2, human PD-L1 on CHO cells (human, UniProt Q9NZQ7 19-290); assay: flow cytometry, CHO/PD-L1 cells; MFI relative to WT CD80
T2 construct: whole, on cells; CHO cells stably expressing PD-L1; also called huPD-L1
T2 sequence (Q9NZQ7 19-290): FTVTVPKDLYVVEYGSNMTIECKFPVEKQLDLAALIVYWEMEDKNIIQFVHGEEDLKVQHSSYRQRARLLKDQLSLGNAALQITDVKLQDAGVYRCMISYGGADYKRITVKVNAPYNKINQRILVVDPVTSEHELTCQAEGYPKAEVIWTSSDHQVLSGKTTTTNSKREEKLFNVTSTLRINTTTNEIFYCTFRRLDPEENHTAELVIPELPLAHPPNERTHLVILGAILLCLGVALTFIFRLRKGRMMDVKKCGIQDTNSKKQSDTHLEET

[3] = target: T2, human PD-L1 on CHO cells; assay: flow cytometry, CHO cells stably expressing PD-L1
[4] = target: T3, CD28 on Jurkat/IL2 reporter cells (human, UniProt P10747 19-220); assay: flow cytometry, Jurkat cells (CD28); MFI relative to WT CD80
T3 construct: whole, on cells; Endogenous CD28 of Jurkat cells; also called Jurkats (CD28)

[5] = target: T2, human PD-L1 on CHO cells; assay: flow cytometry; PD-L1 MFI over CD28 MFI
[6] = target: T3, CD28 on Jurkat/IL2 reporter cells; assay: flow cytometry, Jurkat cells (CD28)
[7] = target: T1, human CTLA4 on CHO cells; assay: flow cytometry, CHO/CTLA4 cells; MFI relative to WT CD80
[8] = target: T4, human PD-L1 (huPD-L1), full-length, stably expressed on CHO cells (human, UniProt Q9NZQ7 19-290); assay: flow cytometry, CHO cells expressing huPD-L1
T4 construct: whole, on cells
T4 sequence (Q9NZQ7 19-290): as above

T1 sequence (P16410 36-223): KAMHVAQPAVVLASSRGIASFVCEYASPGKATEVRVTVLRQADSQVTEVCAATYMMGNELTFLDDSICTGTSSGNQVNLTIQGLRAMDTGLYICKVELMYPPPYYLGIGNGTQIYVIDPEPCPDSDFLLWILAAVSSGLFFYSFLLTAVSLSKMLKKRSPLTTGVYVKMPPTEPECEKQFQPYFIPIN

Binder	MFI at 33.3 nM [1] [MFI]	Fold change to WT CD80 [2] [fold]	MFI at 33.3 nM [3] [MFI]	Fold change to WT CD80 [4] [fold]	Ratio of PDL1:CD28 [5] [ratio]	MFI at 33.3 nM [6] [MFI]	Fold change to WT CD80 [7] [fold]	MFI at 33.3 nM [8] [MFI]
CD80 WT IgV-Fc (Fc fusion, not shown: a dimerising Fc or GST, also called WT CD80 IgV-Fc; wild-type CD80 IgV-Fc) VIHVTKEVKEVATLSCGHNVSVEELAQTRIYWQKEKKMVLTMMSGDMNIWPEYKNRTIFDITNNLSIVILALRPSDEGTYECVVLKYEKDAFKREHLAEVTLSVKAD	1920	1	70.3	1	1	66	1	–
variant CD80 IgV-Fc E35D/M47I/V68M/Y87N (Fc fusion, not shown: small tags and cut ends; a dimerising Fc or GST) VIHVTKEVKEVATLSCGHNVSVEELAQTRIYWQKDKKMVLTMMSGDINIWPEYKNRTIFDITNNLSIMILALRPSDEGTYECVVLKNEKDAFKREHLAEVTLSVKAD	–	–	–	–	–	–	–	13100
variant CD80 IgV-Fc M47I/A71G (Fc fusion, not shown: a dimerising Fc or GST) VIHVTKEVKEVATLSCGHNVSVEELAQTRIYWQKEKKMVLTMMSGDINIWPEYKNRTIFDITNNLSIVILGLRPSDEGTYECVVLKYEKDAFKREHLAEVTLSVKAD	27800	72.5	5100	12.5	6	823	14.5	–
variant CD80 IgV-Fc H18Y/E35D (Fc fusion, not shown: a dimerising Fc or GST) VIHVTKEVKEVATLSCGYNVSVEELAQTRIYWQKDKKMVLTMMSGDMNIWPEYKNRTIFDITNNLSIVILALRPSDEGTYECVVLKYEKDAFKREHLAEVTLSVKAD	26300	50.2	3530	7.3	7	479	13.7	–
variant CD80 IgV-Fc E35D/D46E/A91G (Fc fusion, not shown: a dimerising Fc or GST) VIHVTKEVKEVATLSCGHNVSVEELAQTRIYWQKDKKMVLTMMSGEMNIWPEYKNRTIFDITNNLSIVILALRPSDEGTYECVVLKYEKDGFKREHLAEVTLSVKAD	32200	40.1	2820	52.3	1	3450	16.8	–
variant CD80 IgV-Fc D46V/M47I/A71G (Fc fusion, not shown: a dimerising Fc or GST) VIHVTKEVKEVATLSCGHNVSVEELAQTRIYWQKEKKMVLTMMSGVINIWPEYKNRTIFDITNNLSIVILGLRPSDEGTYECVVLKYEKDAFKREHLAEVTLSVKAD	28400	104	7330	20.1	6	1320	14.8	–
variant CD80 IgV-Fc H18Y/E35D/M47L/A71G/A91S (Fc fusion, not shown: a dimerising Fc or GST) VIHVTKEVKEVATLSCGYNVSVEELAQTRIYWQKDKKMVLTMMSGDLNIWPEYKNRTIFDITNNLSIVILGLRPSDEGTYECVVLKYEKDSFKREHLAEVTLSVKAD	24200	108	7580	8	14	528	12.6	–
variant CD80 IgV-Fc E35D/D46E (Fc fusion, not shown: a dimerising Fc or GST) VIHVTKEVKEVATLSCGHNVSVEELAQTRIYWQKDKKMVLTMMSGEMNIWPEYKNRTIFDITNNLSIVILALRPSDEGTYECVVLKYEKDAFKREHLAEVTLSVKAD	27900	53.4	3760	11.8	5	779	14.6	–
variant CD80 IgV-Fc E35D/M47I/N48K/I61F (Fc fusion, not shown: a dimerising Fc or GST) VIHVTKEVKEVATLSCGHNVSVEELAQTRIYWQKDKKMVLTMMSGDIKIWPEYKNRTIFDFTNNLSIVILALRPSDEGTYECVVLKYEKDAFKREHLAEVTLSVKAD	25900	80	5630	12.4	7	816	13.5	–
variant CD80 IgV-Fc E35D/M47V (Fc fusion, not shown: a dimerising Fc or GST) VIHVTKEVKEVATLSCGHNVSVEELAQTRIYWQKDKKMVLTMMSGDVNIWPEYKNRTIFDITNNLSIVILALRPSDEGTYECVVLKYEKDAFKREHLAEVTLSVKAD	20900	41.7	2940	7	6	461	10.9	–
variant CD80 IgV-Fc E35D/M43I/D46E/A71G/L85M (Fc fusion, not shown: a dimerising Fc or GST) VIHVTKEVKEVATLSCGHNVSVEELAQTRIYWQKDKKMVLTMISGEMNIWPEYKNRTIFDITNNLSIVILGLRPSDEGTYECVVMKYEKDAFKREHLAEVTLSVKAD	26900	102	7140	3	36	200	14	–
variant CD80 IgV-Fc E35D/M47L/A71G/L85M (Fc fusion, not shown: a dimerising Fc or GST) VIHVTKEVKEVATLSCGHNVSVEELAQTRIYWQKDKKMVLTMMSGDLNIWPEYKNRTIFDITNNLSIVILGLRPSDEGTYECVVMKYEKDAFKREHLAEVTLSVKAD	16600	118	8310	3	42	199	8.7	–
variant CD80 IgV-Fc M43I/M47L/A71G (Fc fusion, not shown: a dimerising Fc or GST) VIHVTKEVKEVATLSCGHNVSVEELAQTRIYWQKEKKMVLTMISGDLNIWPEYKNRTIFDITNNLSIVILGLRPSDEGTYECVVLKYEKDAFKREHLAEVTLSVKAD	23300	110	7760	15.2	8	1000	12.2	–
variant CD80 IgV-Fc E35D/D46E/L85M (Fc fusion, not shown: a dimerising Fc or GST) VIHVTKEVKEVATLSCGHNVSVEELAQTRIYWQKDKKMVLTMMSGEMNIWPEYKNRTIFDITNNLSIVILALRPSDEGTYECVVMKYEKDAFKREHLAEVTLSVKAD	30300	41	2880	2.5	18	164	15.8	–
variant CD80 IgV-Fc E35D/D46E/M47I (Fc fusion, not shown: a dimerising Fc or GST) VIHVTKEVKEVATLSCGHNVSVEELAQTRIYWQKDKKMVLTMMSGEINIWPEYKNRTIFDITNNLSIVILALRPSDEGTYECVVLKYEKDAFKREHLAEVTLSVKAD	21400	53.9	3790	15.2	4	1000	11.2	–
variant CD80 IgV-Fc E35D/T41S/N48I (Fc fusion, not shown: a dimerising Fc or GST, also called E35D/T41S/N48T) VIHVTKEVKEVATLSCGHNVSVEELAQTRIYWQKDKKMVLSMMSGDMTIWPEYKNRTIFDITNNLSIVILALRPSDEGTYECVVLKYEKDAFKREHLAEVTLSVKAD	30300	31.2	2190	1.1	30	72.4	15.8	–
